Data set [1] has as its target human calmodulin (Ca^2+-CaM; apo-CaM in EDTA) (human, UniProt P0DP23 1-149). The experiment in a line: SEC.
The data set “SEC-SAXS” concerns the molecule itself. The experiment in a line: SEC-SAXS.

Experimental findings from PMC9574498 (The Journal of Biological Chemistry, 2022) are described below.

B1: human P2X7R ballast domain (P2X7BD, residues 395–595) (domain or fragment, UniProt Q99572 395-595, looked up)
chain: KPTLKYVSFVDESHIRMVNQQLLGRSLQDVKGQEVPRPAMDFTDLSRLPLALHDTPPIPGQPEEIQLLRKEATPRSRDSPVWCQCGSCLPSQLPESHRCLEELCCRKKPGACITTSELFRKLVLSRHVLQFLLLYQEPLLALDVDSTNSRLRHCAYRCYATWRFGSQDMADFAILPSCCRWRIRKEFPKSEGQYSGFKSPY
For B1, in data set [1], the binding result is “binds”. For the same molecule, in the data set “SEC-SAXS”, the “stoichiometry N” value was found to be 3.
